Data reported in US20130252983.

Columns and labels:
[1] = tested on: GACΔC, C-terminal truncation mutant of mouse glutaminase C
[2] = tested on: GAC (S103A), phospho-defective mutant of mouse glutaminase C
[3] = tested on: V5-tagged wild-type mouse glutaminase C (GAC)
Sequence of V5-tagged wild-type mouse glutaminase C (GAC) (chain, as listed by the source): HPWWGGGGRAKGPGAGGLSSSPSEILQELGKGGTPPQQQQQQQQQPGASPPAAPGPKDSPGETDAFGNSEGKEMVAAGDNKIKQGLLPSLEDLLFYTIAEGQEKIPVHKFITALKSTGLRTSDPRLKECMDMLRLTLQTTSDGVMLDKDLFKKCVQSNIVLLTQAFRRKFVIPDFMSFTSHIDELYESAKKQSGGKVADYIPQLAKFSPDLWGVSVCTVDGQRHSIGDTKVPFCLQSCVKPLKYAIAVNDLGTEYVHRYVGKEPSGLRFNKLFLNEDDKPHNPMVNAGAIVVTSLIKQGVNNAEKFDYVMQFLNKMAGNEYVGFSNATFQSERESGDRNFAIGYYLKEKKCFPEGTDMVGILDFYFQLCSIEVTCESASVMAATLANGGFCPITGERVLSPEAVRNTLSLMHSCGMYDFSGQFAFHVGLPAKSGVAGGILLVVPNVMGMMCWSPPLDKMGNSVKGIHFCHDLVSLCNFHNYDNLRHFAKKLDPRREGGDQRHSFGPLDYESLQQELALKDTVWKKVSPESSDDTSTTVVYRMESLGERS

Sequence of GAC (S103A), phospho-defective mutant of mouse glutaminase C (chain, as listed by the source S103A): as the sequence (chain, as listed by the source) above, with S49A counted along it
Sequence of GACΔC, C-terminal truncation mutant of mouse glutaminase C (chain, as listed by the source mutant): as the sequence (chain, as listed by the source) above

mTOR (mammalian target of rapamycin)
phosphorylation of proteins immunoprecipitated with GAC after addition of radio-labeled ATP under conditions favorable for the activation of the mTOR kinase [1]: the phosphorylation of proteins immunoprecipitated with wild-type GAC and GACΔC is observed | phosphorylation of proteins immunoprecipitated with GAC after addition of radio-labeled ATP under conditions favorable for the activation of the mTOR kinase [2]: but not for proteins immunoprecipitated with GAC (S103A) | phosphorylation of proteins immunoprecipitated with GAC after addition of radio-labeled ATP under conditions favorable for the activation of the mTOR kinase [3]: the phosphorylation of proteins immunoprecipitated with wild-type GAC and GACΔC is observed
